We go through two proteins from US20030032788.

Numbering of substitutions follows the chain as printed.

This data set concerns the target T1, endogenous rat mitochondrial aldehyde dehydrogenase (ALDH2) of H4-II-E-C3 hepatoma cells, P11884.
T1 chain: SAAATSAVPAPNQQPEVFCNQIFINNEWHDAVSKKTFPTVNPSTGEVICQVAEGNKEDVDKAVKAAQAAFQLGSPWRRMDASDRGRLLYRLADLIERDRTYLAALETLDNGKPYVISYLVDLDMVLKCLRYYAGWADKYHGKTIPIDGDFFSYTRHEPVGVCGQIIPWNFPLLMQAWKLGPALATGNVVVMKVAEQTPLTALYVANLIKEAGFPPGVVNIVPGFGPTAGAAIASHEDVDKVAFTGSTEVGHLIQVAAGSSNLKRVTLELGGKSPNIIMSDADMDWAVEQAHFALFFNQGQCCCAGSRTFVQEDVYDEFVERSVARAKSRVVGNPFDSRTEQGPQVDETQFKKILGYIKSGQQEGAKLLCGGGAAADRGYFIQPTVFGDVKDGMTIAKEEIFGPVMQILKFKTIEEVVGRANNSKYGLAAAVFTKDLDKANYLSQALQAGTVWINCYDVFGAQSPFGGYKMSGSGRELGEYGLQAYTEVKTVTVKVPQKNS

B1: human ALDH2-2 (mutant) monomer, expressed from the retroviral vector pLHCK3'UT in rat hepatoma H4-II-E-C3 cells (protein)
chain: SAAATQAVPAPNQQPEVFCNQIFINNEWHDAVSRKTFPTVNPSTGEVICQVAEGDKEDVDKAVKAARAAFQLGSPWRRMDASHRGRLLNRLADLIERDRTYLAALETLDNGKPYVISYLVDLDMVLKCLRYYAGWADKYHGKTIPIDGDFFSYTRHEPVGVCGQIIPWNFPLLMQAWKLGPALATGNVVVMKVAEQTPLTALYVANLIKEAGFPPGVVNIVPGFGPTAGAAIASHEDVDKVAFTGSTEIGRVIQVAAGSSNLKRVTLELGGKSPNIIMSDADMDWAVEQAHFALFFNQGQCCCAGSRTFVQEDIYDEFVERSVARAKSRVVGNPFDSKTEQGPQVDETQFKKILGYINTGKQEGAKLLCGGGIAADRGYFIQPTVFGDVQDGMTIAKEEIFGPVMQILKFKTIEEVVGRANNSTYGLAAAVFTKDLDKANYLSQALQAGTVWVNCYDVFGAQSPFGGYKMSGSGRELGEYGLQAYTKVKTVTVKVPQKNS
With B1, the ALDH2 specific activity of ALDH2-2 transduced H4 clones (lower end of range) (nanomoles/minute/milligram protein) was 15; the ALDH2 specific activity of ALDH2-2 transduced H4 clones (mean ± SEM, N=22) (nanomoles/minute/milligram protein) was determined as 40.4; the ALDH2 specific activity of ALDH2-2 transduced H4 clones (upper end of range) (nanomoles/minute/milligram protein) came to 54; the “reduction in hepatocyte ALDH2 activity” value is “leads to a >60% reduction in hepatocyte ALDH2 activity”.

B2: human ALDH2-1 (wild-type) monomer, expressed from the retroviral vector pLNCE in rat hepatoma H4-II-E-C3 cells (protein)
chain: B1 chain with K487E
As to B2, the ALDH2 specific activity of ALDH2-1 transduced H4 clones (lower end of range) (nanomoles/minute/milligram protein) is 42; the ALDH2 specific activity of ALDH2-1 transduced H4 clones (mean ± SEM, N=15) (nanomoles/minute/milligram protein) is 54.7; the ALDH2 specific activity of ALDH2-1 transduced H4 clones (upper end of range) (nanomoles/minute/milligram protein) turned out to be 78; the “increase of ALDH activity relative to the empty vector control group” value is given as “ALDH activity was increased by as much as 52% in some ALDH2-1 transduced clones”.
